One assay deals with rat FcεRI β chain. The experiment in a line: Surface plasmon resonance, immobilized extracellular loop peptides of rat FcεRI β chain. Conditions: SPR. A general note: SPR reads the build-up and loss of mass on a sensor chip optically.
In the next assay the test system is RBL-2H3 cells. Conditions: Erdei et al. 1995, 1999; cited from earlier work.
For another assay, the system named is human FcεRI β chain. Description: Surface plasmon resonance, immobilized extracellular loop peptides of human FcεRI β chain. Conditions: SPR.
In assay [1] the test system is rat peritoneal mast cells (RPMC). Description: Secretory response (β-hexosaminidase release) of rat peritoneal mast cells. In kind it is cell-based. Conditions: non-sensitized cells, no antigen. The source says: Rat peritoneal mast cells (RPMC) were isolated as previously described (Kim et al. J. Immunol. 162:4960-4965, […]). Mast cell preparations were ca. 95% pure, as evaluated by flow cytometric monitoring of FcεRI surface expression. Compound 48/80, a specific activator of serosal type mast cells elicited about 50% release of the total β-hexosaminidase content of the isolated rat peritoneal mast cells.
(§1) Secretory response of mast cells.
While mucosal type mast cells are non-responsive to peptidergic stimuli, the serosal type ones have been known for a long time to be stimulated by cationic secretagogues. The anaphylatoxic peptides C3a and C5a initiate the cells' secretory response by binding to their respective receptors expressed by serosal type mast cells. To investigate the effect of the peptides on this mast cell-type, RPMC were used. As expected, these cells did respond to both C5a and C3a (Table 2). However, degranulation was inhibited when peptides C3a7 or C3a9 were added to the IgE-sensitized RPMC and stimulated, 5 min later with a suboptimal antigen dose (Table 2).

For assay [2], the system named is bone marrow derived mast cells (BMMC). The experiment in a line: Secretory response (β-hexosaminidase release) of bone marrow derived mast cells. In kind it is cell-based, mouse. Here is the method:
Cells. Bone marrow derived mast cells (BMMC) were prepared from Balb/c mice as described by Nagao et al. (Science 212: 333-335, 1981). After 3 weeks, an approximately 95% pure mast cell population was obtained, showing high expression of FcεRI and stem cell factor receptor (c-kit), as measured by flow cytometry.
as §1
Similar experiments were carried out using bone-marrow derived mast cells (BMMC). […] The control peptide of the sequence DVSNYITR had no effect on either system.

B1: C5a: complement activation product C5a, anaphylatoxic peptide, isolated; used as control (protein)
chain: TLQKKIEEIAAKYKHSVVKKCCYDGACVNNDETCEQRAARISLGPRCIKAFTECCVVASQLRANISHKDMQLGR
With B1, the “Reaction with any tested sequences (1st and 2nd loop) of rat FcεRI β-chain” value in the assay with rat FcεRI β chain is on record as “did not react”. Besides, the “Inhibition of IgE-mediated degranulation of RBL-2H3 cells (literature)” value in the assay on RBL-2H3 cells is “has no effect”. The “Reaction with any tested sequences (1st and 2nd loop) of human FcεRI β-chain” value in the assay on human FcεRI β chain is “did not react”. In addition, the “Stimulation of secretory response of RPMC by the peptide itself” value in assay [1] was “did respond”. In addition, the “Inhibition of IgE-mediated secretory response of BMMC” value in assay [2] is “had no effect”.
